Data as given in article PMC12382473, “Retinoid X receptor γ interacts with peroxisome proliferator-activated receptor-γ to promote browning during adipose tissue differentiation” (Adipocyte, 2025).

Target: T1, Flag-PPARγ, transfected in HEK293 cells (UniProt P37231 1-505)
T1 sequence (looked up): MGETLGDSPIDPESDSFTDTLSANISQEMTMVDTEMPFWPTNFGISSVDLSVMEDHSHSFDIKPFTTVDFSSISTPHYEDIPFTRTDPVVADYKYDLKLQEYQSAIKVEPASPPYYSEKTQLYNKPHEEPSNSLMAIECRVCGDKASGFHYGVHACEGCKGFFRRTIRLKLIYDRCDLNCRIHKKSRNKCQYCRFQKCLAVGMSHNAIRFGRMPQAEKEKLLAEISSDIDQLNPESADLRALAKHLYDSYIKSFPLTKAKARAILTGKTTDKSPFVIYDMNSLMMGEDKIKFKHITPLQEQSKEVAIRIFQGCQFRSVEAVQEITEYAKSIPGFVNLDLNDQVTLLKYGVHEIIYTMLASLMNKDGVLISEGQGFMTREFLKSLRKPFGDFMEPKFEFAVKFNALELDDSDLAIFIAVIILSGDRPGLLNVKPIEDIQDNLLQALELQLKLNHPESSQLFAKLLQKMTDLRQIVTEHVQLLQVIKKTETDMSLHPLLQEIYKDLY
Assay: cell-based or functional assay

- luciferase activity of a PPRE reporter in HEK293 cells, RXRγ co-expressed with PPARγ (PPARγ alone 1.6-fold; RXRγ alone no increase): 2.1 fold
- luciferase activity of a UCP1 promoter reporter in HEK293 cells, RXRγ co-expressed with PPARγ (PPARγ alone 1.5-fold; RXRγ alone no increase): 3.4 fold
B1: Myc-RXRγ (retinoid X receptor γ), transfected in HEK293 cells (natural protein, UniProt P48443 1-463, looked up)
chain: MYGNYSHFMKFPAGYGGSPGHTGSTSMSPSAALSTGKPMDSHPSYTDTPVSAPRTLSAVGTPLNALGSPYRVITSAMGPPSGALAAPPGINLVAPPSSQLNVVNSVSSSEDIKPLPGLPGIGNMNYPSTSPGSLVKHICAICGDRSSGKHYGVYSCEGCKGFFKRTIRKDLIYTCRDNKDCLIDKRQRNRCQYCRYQKCLVMGMKREAVQEERQRSRERAESEAECATSGHEDMPVERILEAELAVEPKTESYGDMNMENSTNDPVTNICHAADKQLFTLVEWAKRIPHFSDLTLEDQVILLRAGWNELLIASFSHRSVSVQDGILLATGLHVHRSSAHSAGVGSIFDRVLTELVSKMKDMQMDKSELGCLRAIVLFNPDAKGLSNPSEVETLREKVYATLEAYTKQKYPEQPGRFAKLLLRLPALRSIGLKCLEHLFFFKLIGDTPIDTFLMEMLETPLQIT
